Results on nine variants are retold here after FireProtDB (doi:10.1016/0022-2836(92)90387-y).

B1: Ribonuclease, P00648 (parent)
chain: MMKMEGIALKKRLSWISVCLLVLVSAAGMLFSTAAKTETSSHKAHTEAQVINTFDGVADYLQTYHKLPDNYITKSEAQALGWVASKGNLADVAPGKSIGGDIFSNREGKLPGKSGRTWREADINYTSGFRNSDRILYSSDWLIYKTTDHYQTFTKIR

In this data set the parent is B1. The settings on record: Bacillus amyloliquefaciens; pH 6.3; 25 °C; Urea; Fluorescence; MES 50 mM; reversible: yes; structure 1BNI; whole UniProt chain shown.

Take MMKMEGIALKKRLSWISVCLLVLVSAAGMLFSTAAKTETSSHKAHTEAQVINTFDGVADYLQTYHKLPDNYITKSEAQALGWVASKGNLADVAPGKSIGGDIFSDREGKLPGKSGRTWREADINYTSGFRNSDRILYSSDWLIYKTTDHYQTFTKIR [N105D]: the “ddG of mutation (higher = less stable)” value was -0.4 kcal/mol and the unfolding free energy was 9.23 kcal/mol.

Regarding MMKMEGIALKKRLSWISVCLLVLVSAAGMLFSTAAKTETSSHKAHTEAQVINTFDGVADYLQTYHKLPDNYITKSEAQALGWVASKGNLADVAPGKSIGGDIFANREGKLPGKSGRTWREADINYTSGFRNSDRILYSSDWLIYKTTDHYQTFTKIR [S104A], the “ddG of mutation (higher = less stable)” value is -0.15 kcal/mol and the unfolding free energy came to 8.98 kcal/mol.

Consider MMKMEGIALKKRLSWISVCLLVLVSAAGMLFSTAAKTETSSHKAHTEAQVINTFDGVADYLQTYHKLPDNYITKSEAQALGWVASKGNLADVAPGKSIGGDIFSNREGKLPGKSGRTWREADINYTSGFRNSDRILYSSDWLIYKTTDHFQTFTKIR [Y150F], for which the “ddG of mutation (higher = less stable)” value turned out to be 0 kcal/mol and the unfolding free energy was found to be 8.83 kcal/mol.

With MMKMEGIALKKRLSWISVCLLVLVSAAGMLFSTAAKTETSSHKAHTEAQVINTFDGVADYLQTYHKLPDNYITKSEAQALGWVASKGNLADVAPGKSIGGNIFSNREGKLPGKSGRTWREADINYTSGFRNSDRILYSSDWLIYKTTDHYQTFTKIR [D101N], the “ddG of mutation (higher = less stable)” value stood at 2.67 kcal/mol and the unfolding free energy is 8.16 kcal/mol.

As to MMKMEGIALKKRLSWISVCLLVLVSAAGMLFSTAAKTETSSHKAHTEAQVINTFDGVADYLQTYHKLPDNYITKSEAQALGWVASKGNLADVAPGKSIGGDIFSNREGKLPGKSGRTWREADINYTSGFRNSDRILYSSDWLIYKTTDHYATFTKIR [Q151A], the “ddG of mutation (higher = less stable)” value is 0.16 kcal/mol and the unfolding free energy was determined as 8.67 kcal/mol.

MMKMEGIALKKRLSWISVCLLVLVSAAGMLFSTAAKTETSSHKAHTEAQVINTFDGVADYLQTYHKLPDNYITKSEAQALGWVASKGNLADVAPGKSIGGDIFSNAEGKLPGKSGRTWREADINYTSGFRNSDRILYSSDWLIYKTTDHYQTFTKIR [R106A]: the “ddG of mutation (higher = less stable)” value was -0.64 kcal/mol and the unfolding free energy was 9.47 kcal/mol.

Turning to MMKMEGIALKKRLSWISVCLLVLVSAAGMLFSTAAKTETSSHKAHTEAQVINTFDGVADYLQTYHKLPDNYITASEAQALGWVASKGNLADVAPGKSIGGDIFSNREGKLPGKSGRTWREADINYTSGFRNSDRILYSSDWLIYKTTDHYQTFTKIR [K74A], the “ddG of mutation (higher = less stable)” value is -0.36 kcal/mol and the unfolding free energy came to 9.19 kcal/mol.

For MMKMEGIALKKRLSWISVCLLVLVSAAGMLFSTAAKTETSSHKAHTEAQVINTFDGVADYLQTYHKLPDNYITKSEAQALGWVASKGNLADVAPGKSIGGDIFSNREGKLPGKSGRTWRAADINYTSGFRNSDRILYSSDWLIYKTTDHYQTFTKIR [E120A], the “ddG of mutation (higher = less stable)” value worked out at 2.3 kcal/mol and the unfolding free energy is 6.53 kcal/mol.

Consider MMKMEGIALKKRLSWISVCLLVLVSAAGMLFSTAAKTETSSHKAHTEAQVINTFDGVADYLQTYHKLPDNYITKSEAQALGWVASKGNLADVAPGKSIGGDIFSNREGKLPGKSGRTWREADINYTSGFRNSDRILYSSDWLIYKTTDAYQTFTKIR [H149A], for which the “ddG of mutation (higher = less stable)” value turned out to be 0.24 kcal/mol and the unfolding free energy is 8.59 kcal/mol.
